B1: isolated ZZ-DZB domain of KCMF1 (domain or fragment)
chain: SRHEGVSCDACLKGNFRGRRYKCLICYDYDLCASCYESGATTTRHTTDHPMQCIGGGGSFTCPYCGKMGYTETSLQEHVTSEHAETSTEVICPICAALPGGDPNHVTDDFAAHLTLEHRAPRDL

Experiments:
Test in all cases: ITC
[1] = target: B1
^NLT peptide = target: ^NLT peptide
^NRR peptide = target: ^NRR peptide
^NRA peptide = target: ^NRA peptide

Sequence of ^NLT peptide (Q9P0J7 other isoform, or with tags, fused parts or gaps): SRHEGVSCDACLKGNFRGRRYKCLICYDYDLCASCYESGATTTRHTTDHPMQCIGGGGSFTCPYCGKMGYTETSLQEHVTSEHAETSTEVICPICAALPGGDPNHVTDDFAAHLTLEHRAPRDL

Binder: RTGG [^NRT peptide (ITC)]
- Kd [1]: 7 µM

Binder: B1
- Kd (^NLT peptide): 16 µM

B2: AtUBR4 ZZ domain (domain or fragment)
chain: SSVQYCCDGCSTVPILRRRWHCTVCPDFDLCEACYEVLDADRLPPPHTRDHPMTAIPI
- Kd (^NRR peptide): 19 µM
- Kd (^NRA peptide): 10 µM
